Measured values reported in US20140005098A1.

Legend:
IGF-I = IGF-I (UniProt P05019); assay: competition binding with 125I-IGF-I tracer and unlabelled IGF-I as competitor, Scatchard analysis
IGF-II = IGF-II (UniProt P01344); assay: competition binding with 125I-IGF-I tracer and unlabelled IGF-II as competitor, Scatchard analysis
Chain of IGF-II (P01344 25-91 limits assumed): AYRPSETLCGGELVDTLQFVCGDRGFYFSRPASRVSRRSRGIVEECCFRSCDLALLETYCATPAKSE

Chain of IGF-I (P05019 49-118 limits assumed): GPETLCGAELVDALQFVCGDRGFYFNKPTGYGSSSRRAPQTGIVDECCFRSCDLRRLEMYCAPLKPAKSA

Q: With “mini-IGFBP-3 (mutated recombinant IGFBP-3; H6-mini-IGFBP-3) (from UniProt P17936 28-121; P17936 207-291)” as the substance, how does the Ka (IGF-I) read?
A: 2.4e+10 M⁻¹

Q: What about the Ka (IGF-II) of the same substance?
A: 3.14e+10 M⁻¹
